For assay [1], the target named is T1, Peptide_005 (human).
T1 construct: 15-mer on microarray; not native form, recombinant insert region
T1 peptide: ADVHSQHHHHHHHHV
The assay is described as follows: peptide microarray. The procedure:
(§1) 5, 1, 0.2, 0.04, 0.008 and 0.0016 μg/mL serial dilutions were incubated on a single multi-well microarray slide at 30° C. for 1 hour. The slide includes 21 individual mini-arrays (one mini-array per sample dilution).
(§2) DyLight 650 was used as a label. False-positive binding to a peptide was evaluated by performing one additional control incubation in which only a secondary antibody was applied on the same microarray slide. Before performing each step, the microarrays were washed with a washing buffer.
(§3) MMC2 is the same as the average value of all three cases on a microarray except when the coefficient of variation (CV), which is the standard deviation divided by the average value, is larger than 0.5. In this case, the average of the two closest values (MC2) is assigned to MMC2. The thick black line in the heatmap indicates the culture of a control only using a secondary anti-mouse IgG antibody. The culture of individual antibody samples is indicated by a thin blue line. […] However, since Peptide_004 and Peptide_005 are not native forms, these peptides were excluded from an epitope candidate group.

Assay [2] addresses T2, Peptide_004 (human).
T2 construct: 15-mer on microarray; not native form, recombinant insert region
T2 peptide: AADVHSQHHHHHHHH
The assay is described as follows: peptide microarray, 5 ug/mL. The method, then:
as §1, §2

Assay [3] deals with T1, Peptide_005. As to the kind of experiment: peptide microarray, 5 ug/mL. The procedure:
as §1, §2

Assay [4] has as its target T3, Peptide_012 (human).
T3 construct: 15-mer on microarray; not native form, includes recombinant insert region
T3 peptide: HHHHHHHVKQIESKT
The assay is described as follows: peptide microarray. The procedure:
as §1, §2, §3

Assay [5] has as its target T4, Peptide_018 (human).
T4 construct: 15-mer on microarray; not native form, includes recombinant insert region; also called HVKQIESKTAFQEAL
T4 peptide: HVKQIESKTAFQEAL
The assay is described as follows: peptide microarray. The method, then: as §1, §2, §3

In assay [6] the target is T3, Peptide_012. The assay is described as follows: peptide microarray, 5 ug/mL. The method, then:
as §1, §2

Assay [7] deals with T5, Peptide_013 (human).
T5 construct: 15-mer on microarray; not native form, includes recombinant insert region
T5 peptide: HHHHHHVKQIESKTA
The assay is described as follows: peptide microarray, 5 ug/mL. The method, then: as §1, §2

The target in assay [8] is T6, Peptide_014 (human).
T6 construct: 15-mer on microarray; not native form, includes recombinant insert region
T6 peptide: HHHHHVKQIESKTAF
As to the kind of experiment: peptide microarray, 5 ug/mL. The procedure: as §1, §2

The target in assay [9] is T7, Peptide_015 (human).
T7 construct: 15-mer on microarray; not native form, includes recombinant insert region
T7 peptide: HHHHVKQIESKTAFQ
As to the kind of experiment: peptide microarray, 5 ug/mL. The method, then:
as §1, §2

The target in assay [10] is T4, Peptide_018. As to the kind of experiment: peptide microarray, 5 ug/mL. The method, then: as §1, §2
Assay [11] addresses T8, Peptide_019 (human).
T8 construct: 15-mer of hTrx1 on microarray
T8 peptide: VKQIESKTAFQEALD
The assay is described as follows: peptide microarray, 5 ug/mL. The method, then:
as §1, §2

In assay [12] the target is T9, Peptide_020 (human).
T9 construct: 15-mer of hTrx1 on microarray
T9 peptide: KQIESKTAFQEALDA
As to the kind of experiment: peptide microarray, 5 ug/mL. The procedure:
as §1, §2

Assay [13] addresses T10, Peptide_021 (human).
T10 construct: 15-mer of hTrx1 on microarray
T10 peptide: QIESKTAFQEALDAA
The assay is described as follows: peptide microarray, 5 ug/mL. The procedure: as §1, §2

In assay [14] the target is T11, Peptide_022 (human).
T11 construct: 15-mer of hTrx1 on microarray
T11 peptide: IESKTAFQEALDAAG
As to the kind of experiment: peptide microarray, 5 ug/mL. The procedure: as §1, §2

The target in assay [15] is T12, Peptide_023 (human).
T12 construct: 15-mer of hTrx1 on microarray
T12 peptide: ESKTAFQEALDAAGD
As to the kind of experiment: peptide microarray, 5 ug/mL. The procedure:
as §1, §2

Assay [16] deals with T13, Peptide_024 (human).
T13 construct: 15-mer of hTrx1 on microarray
T13 peptide: SKTAFQEALDAAGDK
As to the kind of experiment: peptide microarray, 5 ug/mL. The method, then:
as §1, §2

Assay [17] deals with T14, Peptide_025 (human).
T14 construct: 15-mer of hTrx1 on microarray
T14 peptide: KTAFQEALDAAGDKL
The assay is described as follows: peptide microarray, 5 ug/mL. The procedure: as §1, §2

Assay [18] deals with T15, Peptide_045 (human).
T15 construct: 15-mer of hTrx1 on microarray
T15 peptide: SATWCGPCKMIKPFF
The assay is described as follows: peptide microarray, 5 ug/mL. The procedure:
as §1, §2

Assay [19] deals with T16, Peptide_051 (human).
T16 construct: 15-mer of hTrx1 on microarray
T16 peptide: PCKMIKPFFHSLSEK
As to the kind of experiment: peptide microarray, 5 ug/mL. The procedure:
as §1, §2

For assay [20], the target named is T17, Peptide_084 (human).
T17 construct: 15-mer of hTrx1 on microarray
T17 peptide: SECEVKCMPTFQFFK
The assay is described as follows: peptide microarray, 5 ug/mL. The procedure: as §1, §2

Assay [21] concerns the target T18, Peptide_085 (human).
T18 construct: 15-mer of hTrx1 on microarray
T18 peptide: ECEVKCMPTFQFFKK
The assay is described as follows: peptide microarray, 5 ug/mL. The method, then:
as §1, §2

Assay [22] concerns the target T19, Peptide_086 (human).
T19 construct: 15-mer of hTrx1 on microarray
T19 peptide: CEVKCMPTFQFFKKG
The assay is described as follows: peptide microarray, 5 ug/mL. The procedure:
as §1, §2

The target in assay [23] is T20, Peptide_092 (human).
T20 construct: 15-mer of hTrx1 on microarray
T20 peptide: PTFQFFKKGQKVGEF
As to the kind of experiment: peptide microarray, 5 ug/mL. The procedure:
as §1, §2

Assay [24] deals with T21, Peptide_093 (human).
T21 construct: 15-mer of hTrx1 on microarray
T21 peptide: TFQFFKKGQKVGEFS
The assay is described as follows: peptide microarray, 5 ug/mL. The procedure:
as §1, §2

In assay [25] the target is T22, Peptide_094 (human).
T22 construct: 15-mer of hTrx1 on microarray
T22 peptide: FQFFKKGQKVGEFSG
As to the kind of experiment: peptide microarray, 5 ug/mL. The method, then:
as §1, §2

The target of assay [26] is T23, Peptide_095 (human).
T23 construct: 15-mer of hTrx1 on microarray
T23 peptide: QFFKKGQKVGEFSGA
The assay is described as follows: peptide microarray, 5 ug/mL. The method, then:
as §1, §2

In assay [27] the target is T24, Peptide_008.
T24 peptide: HSQHHHHHHHHVKQI
As to the kind of experiment: peptide microarray, anti-mouse IgG DyLight 650, MMC2 heatmap (Example 17). The method, then: as §1, §2
(§4) To visualize the obtained results and compare binding regions across individual cultures, as shown in FIGS. 21A to 21D, heatmap diagrams were calculated. In FIGS. 21A to 21D, the fluorescence intensity is expressed in a color-coded manner, white indicates no binding, and red indicates strong binding. For all evaluations, the MMC2-value of the average pixel fluorescence for each peptide was calculated.

Assay [28] deals with T25, Peptide_011.
T25 peptide: HHHHHHHHVKQIESK
The assay is described as above. The procedure:
as §1, §2, §4

For assay [29], the target named is T26, Peptide_031.
T26 peptide: ALDAAGDKLVVVDFS
The assay is described as above. The procedure:
as §1, §2, §4

Assay [30] addresses T27, Peptide_043.
T27 peptide: DFSATWCGPCKMIKP
The description is as above. The procedure: as §1, §2, §4

Assay [31] concerns the target T28, Peptide_064.
T28 peptide: EKYSNVIFLEVDVDD
Described as above. The procedure:
as §1, §2, §4

The target in assay [32] is T29, Peptide_071.
T29 construct: also called FLEVDVDDCQDVASE
T29 peptide: FLEVDVDDCQDVASE
The description is as above. The procedure: as §1, §2, §4

B1: monoclonal antibody B266-1 (antibody, human IgG1)
light: QIVLTQSPAIMSASPGEKVTMTCSASSRISYMYWYQQKPGTSPKRWIYDTSKLASGVPARFSGSGSGTSYSLTISTMEAEDAATYYCHQRSSYPTFGAGTKLELKSVAAPSVFIFPPSDEQLKSGTASVVCLLNNFYPREAKVQWKVDNALQSGNSQESVTEQDSKDSTYSLSSTLTLSKADYEKHKVYACEVTHQGLSSPVTKSFNRGEC
heavy: not shown
notes: B266 with the Fc part changed to human IgG1; also called B266-1 (Trx1-hIgG1); B266-1 (hTrx1-hIgG1)
Consider B1, for which the “signal, fold of the average background level” value in assay [1] was approximately 8 fold. The “signal (blank-control = 1)” value in assay [2] came to 6.78; in [3], 7.63.

B2: monoclonal antibody B264 (antibody, mouse IgG1, kappa, V domains shown)
VH: QVQLQQSGAELARPGASVKMSCKASGYTFTSYTMHWVKQRPGQGLEWIGYINPTSDYTNYNQKFKDKATLTADKSSSTAYMQLSSLTSEDSAVYFCASEGGFLYYFDYWGQGTTLTVSS
VL: DVLMTQTPLSLPVSLGDQASISCRSSQSIVHSNGNTYLEWYLQKPGQSPKLLIYKVSNRFSGVPDRFSGSGSGTDFTLKISRVEAEDLGVYYCFQGSHVPYTFGGGTKLEIKR
notes: also called AB264; B264 (Trx1-mIgG1)
With B2, the “signal, fold of the average background level” value in assay [4] and in [5] was approximately 7 fold in each case. For the same molecule, the “signal (blank-control = 1)” value in [6] amounted to 4.49; in assay [7], 4.87; in assay [8], 6.9; in assay [9] it was 5.96; in [10] it was 6.15; in assay [11], 1.98. In addition, the “signal (blank-control = 1)” value in [12] was 2.41; in [13], 2.69; in assay [14], 5.54; in [15], 1.26; in assay [16] it was 6.09; in [17], 6.49. Moreover, the “signal (blank-control = 1)” value in [18] was determined as 4.9; in assay [19], 4.28; in assay [20], 3.79; in [21], 3.87; in assay [22], 1.9; in assay [23], 6.78. In addition, the figures for the “signal (blank-control = 1)” value in assay [24], in assay [25] and in assay [26] were 6.18, 4.13 and 3.44, respectively. The binding result in assay [27], in [28], in [29], in assay [30], in assay [31] and in assay [32] was “no binding (tested: 5 ug/mL)” each time.
